Data on two molecules can be found in PMC6435475, “Structural and functional characterisation of the entry point to pyocyanin biosynthesis in Pseudomonas aeruginosa defines a new 3-deoxy-D-arabino-heptulosonate 7-phosphate synthase subclass” (Bioscience Reports, 2018).

The test system of data set [1] is O=C[C@H](O)[C@H](O)COP(=O)(O)O. Description: purified protein. Particulars: PEP 150 μM, Co2+ 100 μM, pH 7.5, 37 °C.
From the text: (§1) initial-rate UV-Vis spectrophotometric assay on PaeDAH7PS^PA1901 (type II DAH7PS, phzC)
The subject of data set [2] is C=C(OP(=O)(O)O)C(=O)O. Description: purified protein. Particulars: E4P 150 μM, Co2+ 100 μM, pH 7.5, 37 °C.
From the text: as §1
Data set [3] deals with the molecule itself. Description: SEC-SAXS; injection concentration 8.0 mg/ml (180 uM; also 5.0 mg/ml), Superdex S200, 50 mM bis-tris propane pH 7.5, 100 uM cobalt chloride, 200 uM PEP, 5% glycerol, 293 K; elution peak deconvoluted into two Gaussian components (peaks A and B). Background: SEC sorts molecules by how far they enter the pores of the column.
Data set [4] deals with the molecule itself. Description: crystal structure; microbatch crystallisation, protein 3-5 mg/ml (67-112 uM), 0.2 M sodium fluoride, 1 mM cobalt chloride, 1 mM PEP, 18% PEG 3350, 278 K; space group C222(1), two chains in the asymmetric unit, tetramer by a two-fold crystallographic symmetry operation.

On to “PaeDAH7PS^PA1901 (type II DAH7PS, phzC) (Pseudomonas aeruginosa PAO1)”, for which, in data set [1], the Km (commonly the substrate concentration at which the rate is half of its maximum) is 16 ± 3 µM; the kcat (commonly the number of substrate molecules converted per active site and unit of time at saturation) came out at 19.8 ± 0.4 s⁻¹; the kcat/Km – broadly, the turnover number divided by the Michaelis constant – was 1.24e+06 ± 150000 M⁻¹ s⁻¹. Further, in data set [2], the Km came out at 17 ± 1 µM, the kcat is 19.8 ± 0.4 s⁻¹ and the kcat/Km was found to be 1.16e+06 ± 100000 M⁻¹ s⁻¹.

B1: PaeDAH7PS^PA1901 (3-deoxy-D-arabino-heptulosonate 7-phosphate synthase encoded by phzC, Pseudomonas aeruginosa PAO1) (enzyme)
chain: MDDLLQRVRRCEALQQPEWGDPSRLRDVQAYLRGSPALIRAGDILALRATLARVARGEALVVQCGDCAEDMDDHHAENVARKAAVLELLAGALRLAGRRPVIRVGRIAGQYAKPRSKPHEQVGEQTLPVYRGDMVNGREAHAEQRRADPQRILKGYAAARNIMRHLGWDAASGQEANASPVWTSHEMLLLDYELSMLREDEQRRVYLGSTHWPWIGERTRQVDGAHVALLAEVLNPVACKVGPEIGRDQLLALCERLDPRREPGRLTLIARMGAQKVGERLPPLVEAVRAAGHPVIWLSDPMHGNTIVAPCGNKTRLVRSIAEEVAAFRLAVSGSGGVAAGLHLETTPDDVTECVADSSGLHQVSRHYTSLCDPRLNPWQALSAVMAWSGAEAIPSATFPLETVA
notes: 3-deoxy-D-arabino-heptulosonate 7-phosphate synthase (type II DAH7PS) encoded by phzC, ORF PA1901 (duplicated as PA4212), Pseudomonas aeruginosa PAO1; the ORF was amplified from gDNA; residues up to 405 are named; measured mass of a single chain 44470 Da (calculated 44468 Da); Homodimer in solution at low concentration (AUC, SEC-SAXS); homotetramer in the crystal and at high concentration in …
As to B1, the stoichiometry N – broadly, a count of units in the complex or per binding partner – in data set [3] is 2; in data set [4], 4.
